In paper PMC5861054, “Crystal structure of an intramembranal phosphatase central to bacterial cell-wall peptidoglycan biosynthesis and lipid recycling” (Nature Communications, 2018):

Target: the molecule itself
Experiment: cross-linking; purified UppP, room temperature 30 min, 50-fold molar excess DSS or EGS, quenched with 50 mM Tris, 12% SDS-PAGE

B1: Undecaprenyl pyrophosphate phosphatase (UppP) from Escherichia coli (enzyme, Escherichia coli K-12, UniProt P60932 1-273, looked up)
chain: MSDMHSLLIAAILGVVEGLTEFLPVSSTGHMIIVGHLLGFEGDTAKTFEVVIQLGSILAVVVMFWRRLFGLIGIHFGRPLQHEGESKGRLTLIHILLGMIPAVVLGLLFHDTIKSLFNPINVMYALVVGGLLLIAAECLKPKEPRAPGLDDMTYRQAFMIGCFQCLALWPGFSRSGATISGGMLMGVSRYAASEFSFLLAVPMMMGATALDLYKSWGFLTSGDIPMFAVGFITAFVVALIAIKTFLQLIKRISFIPFAIYRFIVAAAVYVVFF
notes: Undecaprenyl pyrophosphate phosphatase (UppP, BacA), Escherichia coli K-12 (ATCC 10798), full length, residues 1-273; Integral membrane protein, in DDM detergent (SEC, cross-linking) or monoolein lipid cubic/sponge phase (crystals); also called EcUppP; BacA; source: E. coli C41, solubilized from membranes in DDM, purified (Ni-NTA, thrombin cleavage, gel filtration); not shown: His6, N-terminal, …
With B1 the “stoichiometry N” value was 2.
